Patent publication US20220098261A1 (Harvard, published 2022)

What was measured:
[1] = target: T1, EPO receptor on cells (human, UniProt P19235 25-508); experiment: cell-based or functional assay
T1 sequence (looked up): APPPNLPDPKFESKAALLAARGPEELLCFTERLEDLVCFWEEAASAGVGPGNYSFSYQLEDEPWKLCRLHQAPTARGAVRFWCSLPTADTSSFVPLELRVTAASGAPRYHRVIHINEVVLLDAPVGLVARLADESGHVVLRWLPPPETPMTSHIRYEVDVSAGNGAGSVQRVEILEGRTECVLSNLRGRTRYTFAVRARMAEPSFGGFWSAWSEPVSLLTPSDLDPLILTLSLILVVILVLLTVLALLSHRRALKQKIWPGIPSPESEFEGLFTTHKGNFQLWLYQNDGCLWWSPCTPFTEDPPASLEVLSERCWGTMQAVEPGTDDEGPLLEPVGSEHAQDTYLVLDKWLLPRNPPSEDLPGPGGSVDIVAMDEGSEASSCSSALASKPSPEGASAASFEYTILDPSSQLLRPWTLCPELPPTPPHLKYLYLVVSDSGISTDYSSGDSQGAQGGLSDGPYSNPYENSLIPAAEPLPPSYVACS

[2] = target: T2, human glycophorin A (human, UniProt P02724 20-150); experiment: column 'Binding strength' of Table 1, format scFv; method not stated
T2 construct: Native protein on human red blood cells (and TF-1 cells); also called GYPA; huGYPA
T2 sequence: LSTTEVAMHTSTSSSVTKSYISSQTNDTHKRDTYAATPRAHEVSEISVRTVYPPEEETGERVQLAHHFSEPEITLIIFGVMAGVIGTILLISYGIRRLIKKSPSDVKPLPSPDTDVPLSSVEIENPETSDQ

[3] = target: T2, human glycophorin A; experiment: column 'Binding strength' of Table 1, format nanobody; method not stated

In the case of Darbepoetin (Amgen) (ligand), the TF-1 cell proliferation, EC50 relative to epoetin alpha [1] is reported as 14.7 fold.

B1: 1C3 scFv (scFv)
scFv: EVRLLESGGGPVQPGGSLKLSCAASGFDFSRYWMNWVRRAPGKGLEWIGEINQQSSTINYSPPLKDKFIISRDNAKSTLYLQMNKVRSEDTALYYCARLSLTAAGFAYWGQGTLVTVSAGGGSSGGSGSSGGSSSGGDIVMSQSPSSLAVSVGEKVSMSCKSSQSLFNSRTRKNYLTWYQQKPGQSPKPLIYWASTRESGVPDRFTGSGSGTDFTLTISSVQAEDLADYYCKQSYNLRTFGGGTKLEIK
For B1, the Kd [2] was 30 nM.

B2: IH4v1 nanobody (VHH)
VHH: QVQLQESGGGSVQAGGSLRLSCVASGYTDSTYCVGWFRQAPGKEREGVARINTISGRPWYADSVKGRFTISQDNSKNTVYLQMNSLKPEDTAIYYCTLTTANSRGFCSGGYNYKGQGTQVTVS
notes: Camelid single-domain antibody with the added Thr118
B2 gave a Kd [3] of 30 nM.
